From PMC10018365, “Cryo-EM structure of the fully assembled Elongator complex” (Nucleic Acids Research, 2023)

T1: Saccharomyces cerevisiae Elp1 (Saccharomyces cerevisiae, UniProt Q06706 1-1349)
T1 construct: Elp1, S. cerevisiae, full-length ORF; also called ScElp1; source: S. cerevisiae DS1-2b, overexpressed, purified within ScElongator
T1 sequence (looked up): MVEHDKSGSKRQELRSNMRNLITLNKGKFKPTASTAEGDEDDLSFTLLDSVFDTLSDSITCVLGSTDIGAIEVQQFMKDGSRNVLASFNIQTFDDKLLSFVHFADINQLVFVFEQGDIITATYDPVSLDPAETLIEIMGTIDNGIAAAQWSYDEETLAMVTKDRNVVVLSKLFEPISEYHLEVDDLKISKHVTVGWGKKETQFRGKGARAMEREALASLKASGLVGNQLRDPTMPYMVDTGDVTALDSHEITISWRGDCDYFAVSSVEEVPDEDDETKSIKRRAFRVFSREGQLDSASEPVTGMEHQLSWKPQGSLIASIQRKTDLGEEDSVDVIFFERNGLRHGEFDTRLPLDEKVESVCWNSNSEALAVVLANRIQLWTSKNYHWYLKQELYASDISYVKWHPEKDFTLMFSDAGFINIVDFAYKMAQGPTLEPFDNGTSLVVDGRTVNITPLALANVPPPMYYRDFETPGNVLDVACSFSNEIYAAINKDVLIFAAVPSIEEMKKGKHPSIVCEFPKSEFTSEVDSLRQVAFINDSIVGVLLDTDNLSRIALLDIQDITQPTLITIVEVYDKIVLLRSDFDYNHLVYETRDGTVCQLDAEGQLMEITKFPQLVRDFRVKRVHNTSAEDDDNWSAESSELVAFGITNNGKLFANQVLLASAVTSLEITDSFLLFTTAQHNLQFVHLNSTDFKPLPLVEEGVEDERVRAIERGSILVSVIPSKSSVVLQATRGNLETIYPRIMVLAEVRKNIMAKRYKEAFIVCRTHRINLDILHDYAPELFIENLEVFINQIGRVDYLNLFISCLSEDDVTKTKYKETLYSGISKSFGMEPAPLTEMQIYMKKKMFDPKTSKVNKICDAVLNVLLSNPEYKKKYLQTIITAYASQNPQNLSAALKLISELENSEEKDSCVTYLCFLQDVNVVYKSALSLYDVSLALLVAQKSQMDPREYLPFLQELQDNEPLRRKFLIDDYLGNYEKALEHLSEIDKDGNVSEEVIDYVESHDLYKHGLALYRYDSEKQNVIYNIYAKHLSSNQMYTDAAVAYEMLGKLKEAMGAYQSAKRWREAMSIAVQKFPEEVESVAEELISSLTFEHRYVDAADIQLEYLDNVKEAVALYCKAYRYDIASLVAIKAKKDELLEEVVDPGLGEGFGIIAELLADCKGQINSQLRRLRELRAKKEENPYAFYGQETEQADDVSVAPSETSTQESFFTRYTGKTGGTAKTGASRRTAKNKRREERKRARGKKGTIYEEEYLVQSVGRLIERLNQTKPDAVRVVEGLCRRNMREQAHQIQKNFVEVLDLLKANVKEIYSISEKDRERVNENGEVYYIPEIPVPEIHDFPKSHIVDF

T2: Saccharomyces cerevisiae Elp2 (Saccharomyces cerevisiae, UniProt P42935 1-788)
T2 construct: Elp2, S. cerevisiae, full-length ORF; also called ScElp2; source: S. cerevisiae DS1-2b, overexpressed, purified within ScElongator
T2 sequence (looked up): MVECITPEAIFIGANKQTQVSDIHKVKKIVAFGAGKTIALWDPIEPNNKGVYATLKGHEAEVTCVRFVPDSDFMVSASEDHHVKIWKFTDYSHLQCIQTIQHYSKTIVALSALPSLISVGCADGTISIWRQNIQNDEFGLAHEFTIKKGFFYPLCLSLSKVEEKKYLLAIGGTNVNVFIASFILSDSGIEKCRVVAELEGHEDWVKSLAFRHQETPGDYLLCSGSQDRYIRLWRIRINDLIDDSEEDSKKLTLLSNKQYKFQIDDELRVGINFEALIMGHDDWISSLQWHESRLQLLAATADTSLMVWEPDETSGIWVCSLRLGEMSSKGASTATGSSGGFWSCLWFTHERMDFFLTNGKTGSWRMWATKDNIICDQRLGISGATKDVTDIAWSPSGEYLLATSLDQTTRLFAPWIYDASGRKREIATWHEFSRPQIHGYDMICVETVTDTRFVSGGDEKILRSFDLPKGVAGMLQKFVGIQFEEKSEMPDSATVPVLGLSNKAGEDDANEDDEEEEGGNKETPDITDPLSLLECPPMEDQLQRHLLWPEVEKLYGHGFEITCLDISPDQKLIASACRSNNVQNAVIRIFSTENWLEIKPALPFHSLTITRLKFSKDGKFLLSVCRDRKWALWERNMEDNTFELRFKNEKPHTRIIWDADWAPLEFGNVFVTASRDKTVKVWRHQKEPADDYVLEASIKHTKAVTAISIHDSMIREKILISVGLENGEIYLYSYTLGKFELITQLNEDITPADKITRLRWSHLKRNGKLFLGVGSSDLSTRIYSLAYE

B1: Mus musculus Elp456 subcomplex (complex)
chain 1: MAAADTCGAGTLSSRSVASEAGQGGTSSFQRKGKASGGPGGGPRLLSIAGTRPSVRNGQLLVSTGLPALDQLLGGGLAVGTLLLIEEDKYNIYSPLLFKYFMAEGIINGHTLLVASAKENPAKILQELPAPLLDDNSKKELEDVHSAKTPEPNVNMKIAWRYQLQPKMEVGPVSSSRFGHYYDLSKRIPWELLQSSKWHGFFLPEHISPDLKGESCFLSCGYMRLLEFIQKSVYAEGFDGANPQKKQKNILRIGIQNLGSPLWGDDICCKENCDNNHRLTKFLYILRGLLRSSLSACIITMPAHLVQNKSITTRVRNLSDTVVGLESFIGSERETNPLYKDYHGLIHIRKIPRLNNLTCDESDVKDLAFKLKRKLFTIERLHLPPDLSDTVGRSSKQDLAASTARLGAGCSSMAEGKKHLDF
chain 2: MLDSLLAIGGLVLLRDSVEWEGRSLLKALIKKSALRGEQVHVLGCEVSEEEFREGFDSDVNSRLVYHDLFRDPLNWSKPGEAVPEGPLKALRSMCKRTDHGSVTIALDSLSWLLCHIPCVTLCQALHALSQQNGDPGDNSLVEQVRVLGLLHEELHGPGSMGALNTLAHTEVTLSGKVDQTSASILCRRPQQRATYQTWWFSVLPDFSLTLHEGLPLRSELHPDHHTTQVDPTAHLTFNLHLSKKEREARDSLTLPFQFSSEKQKALLHPVPSRTTGHIFYEPDAFDDVDPEDPDDDLDI
chain 3: MFPELNNLLSTTPDKTEQGTLTLLCDAKTDGSFLVHHFLSFYLKANCKVCFVALVQSFSHYNIVGQKLGVSLTAARDRGQLVFLEGLKSSVEVLFHSQDEPHPLQFLREAGTGNLQSLYTFIQDTLKPADSEESPWKYPVLLVDNLSVLLSLGVGAVAVLDFMQYCRATVCCELKGNVVALVHDTEGATDEGNDTLLNGLSHQSHLILRAEGLATGFCKDVHGQLSILWRRPSRSTAQRAQSLTYQYKIQDKNVSFFAKGMSPAVL
notes: Elp4, mouse, ORF; Elp5, mouse, ORF; Elp6, mouse, ORF; Gel filtration at about 220 kDa; also called MmElp456; mouse Elp456; source: Hi-5 insect cells (baculovirus, biGBac), purified (IgG Sepharose with TEV elution, Superose 6); not shown: FLAG, C-terminal, kept; Protein A, C-terminal, cleaved; copies: 2 + 2 + 2
B2: Saccharomyces cerevisiae Elp3 (enzyme, UniProt Q02908 1-557, looked up)
chain: MARHGKGPKTNKKKLAPEKERFIQCCADITLELTDSLTSGTTREINLNGLITKYSKKYKLKQQPRLTDIINSIPDQYKKYLLPKLKAKPVRTASGIAVVAVMCKPHRCPHIAYTGNICVYCPGGPDSDFEYSTQSYTGYEPTSMRAIRARYDPYEQARGRVEQLKQLGHSIDKVEYVLMGGTFMSLPKEYREDFIVKLHNALSGFNGNDIDEAILYSQQSLTKCVGITIETRPDYCTQTHLDDMLKYGCTRLEIGVQSLYEDVARDTNRGHTVRSVCETFAVSKDAGYKVVSHMMPDLPNVGMERDIEQFKEYFENPDFRTDGLKIYPTLVIRGTGLYELWKTGRYKSYSANALVDLVARILALVPPWTRIYRVQRDIPMPLVTSGVDNGNLRELALARMKDLGTTCRDVRTREVGIQEVHHKVQPDQVELIRRDYYANGGWETFLSYEDPKKDILIGLLRLRKASKKYTYRKEFTSQRTSIVRELHVYGSVVPLHSRDPRKFQHQGFGTLLMEEAERIAKEEHGSEKISVISGVGVRNYYGKLGYELDGPYMSKRI
notes: Elp3, S. cerevisiae, full-length ORF; also called ScElp3; source: S. cerevisiae DS1-2b, overexpressed, purified within ScElongator; not shown: Twin-Strep-tag, C-terminal, kept

Assays:
Settings in all cases: both partners purified
[1] = biological target: T3, Mus musculus Elp123 subcomplex (Mus musculus, UniProt Q7TT37 1-1333; Q91WG4 1-831; Q9CZX0 1-547); test: cryo-EM structure; MmElongator reconstituted from purified MmElp123 and MmElp456 and re-purified by gel filtration, 5.9 Å
T3 construct: Elp1, mouse, ORF; Elp2, mouse, ORF; Elp3, mouse, ORF; Gel filtration at about 610 kDa; also called MmElp123; mouse Elp123; source: Super Sf9-1 insect cells (baculovirus, biGBac), purified (StrepTrap, heparin, Superose 6); not shown: Twin-Strep-tag, C-terminal, kept; copies: 2 + 2 + 2
T3 sequence (Q7TT37 whole entry, chain 1 of 3): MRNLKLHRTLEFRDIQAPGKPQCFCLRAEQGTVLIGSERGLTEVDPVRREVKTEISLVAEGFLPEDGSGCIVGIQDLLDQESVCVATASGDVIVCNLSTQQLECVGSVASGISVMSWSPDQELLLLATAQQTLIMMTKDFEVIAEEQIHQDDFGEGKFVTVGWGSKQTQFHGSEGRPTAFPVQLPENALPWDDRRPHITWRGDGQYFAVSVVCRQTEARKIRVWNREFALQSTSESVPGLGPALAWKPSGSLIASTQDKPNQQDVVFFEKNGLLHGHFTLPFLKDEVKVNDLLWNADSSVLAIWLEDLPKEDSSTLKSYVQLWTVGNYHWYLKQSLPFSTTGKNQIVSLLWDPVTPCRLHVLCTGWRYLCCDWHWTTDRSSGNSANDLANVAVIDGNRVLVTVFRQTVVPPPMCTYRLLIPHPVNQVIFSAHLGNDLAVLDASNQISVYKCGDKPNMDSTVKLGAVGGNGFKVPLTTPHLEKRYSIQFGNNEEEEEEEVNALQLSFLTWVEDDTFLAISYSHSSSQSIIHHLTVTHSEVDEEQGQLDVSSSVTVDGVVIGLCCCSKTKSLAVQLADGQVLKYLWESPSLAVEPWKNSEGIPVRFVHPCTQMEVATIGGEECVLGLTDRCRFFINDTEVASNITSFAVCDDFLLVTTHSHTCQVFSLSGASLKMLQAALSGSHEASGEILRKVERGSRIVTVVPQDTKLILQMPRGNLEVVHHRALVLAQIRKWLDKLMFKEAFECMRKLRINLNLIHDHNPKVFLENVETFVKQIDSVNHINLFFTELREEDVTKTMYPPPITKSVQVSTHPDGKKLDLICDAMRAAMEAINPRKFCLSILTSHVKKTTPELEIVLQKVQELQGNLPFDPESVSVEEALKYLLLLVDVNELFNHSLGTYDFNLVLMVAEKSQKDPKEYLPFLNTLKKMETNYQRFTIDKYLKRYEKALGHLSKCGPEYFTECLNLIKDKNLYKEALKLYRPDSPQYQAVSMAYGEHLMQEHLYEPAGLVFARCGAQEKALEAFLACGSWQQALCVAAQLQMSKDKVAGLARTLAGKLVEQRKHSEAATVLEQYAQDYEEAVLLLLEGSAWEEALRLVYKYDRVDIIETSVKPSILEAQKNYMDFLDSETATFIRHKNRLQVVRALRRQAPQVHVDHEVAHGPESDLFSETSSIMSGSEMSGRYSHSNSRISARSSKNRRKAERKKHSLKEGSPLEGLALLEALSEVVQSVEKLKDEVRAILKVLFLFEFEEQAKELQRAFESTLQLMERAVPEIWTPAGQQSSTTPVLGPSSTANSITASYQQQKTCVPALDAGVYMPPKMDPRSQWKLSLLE
T3 sequence (Q91WG4 whole entry, chain 2 of 3): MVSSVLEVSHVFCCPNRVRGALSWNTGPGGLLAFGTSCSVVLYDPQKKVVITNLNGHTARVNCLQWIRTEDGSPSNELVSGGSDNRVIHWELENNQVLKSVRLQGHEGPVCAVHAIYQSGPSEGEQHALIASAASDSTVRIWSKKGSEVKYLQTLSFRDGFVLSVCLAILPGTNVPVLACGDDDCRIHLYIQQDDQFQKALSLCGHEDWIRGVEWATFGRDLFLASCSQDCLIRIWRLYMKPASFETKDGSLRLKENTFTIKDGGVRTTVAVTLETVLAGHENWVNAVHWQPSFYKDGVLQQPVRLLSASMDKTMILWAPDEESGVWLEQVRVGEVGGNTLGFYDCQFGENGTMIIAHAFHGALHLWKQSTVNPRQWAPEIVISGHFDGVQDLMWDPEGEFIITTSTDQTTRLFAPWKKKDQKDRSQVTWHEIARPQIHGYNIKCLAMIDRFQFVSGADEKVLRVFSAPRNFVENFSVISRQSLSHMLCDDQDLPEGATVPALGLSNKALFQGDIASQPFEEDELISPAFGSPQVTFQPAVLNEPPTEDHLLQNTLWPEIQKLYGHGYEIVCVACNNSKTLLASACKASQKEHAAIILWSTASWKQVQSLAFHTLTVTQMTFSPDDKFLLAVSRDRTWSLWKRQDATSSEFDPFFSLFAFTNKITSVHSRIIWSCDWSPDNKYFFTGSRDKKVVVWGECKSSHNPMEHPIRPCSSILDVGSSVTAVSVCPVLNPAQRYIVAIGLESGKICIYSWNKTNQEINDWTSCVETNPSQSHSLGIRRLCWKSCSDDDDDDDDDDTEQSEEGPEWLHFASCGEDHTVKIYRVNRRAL
T3 sequence (Q9CZX0 whole entry, chain 3 of 3): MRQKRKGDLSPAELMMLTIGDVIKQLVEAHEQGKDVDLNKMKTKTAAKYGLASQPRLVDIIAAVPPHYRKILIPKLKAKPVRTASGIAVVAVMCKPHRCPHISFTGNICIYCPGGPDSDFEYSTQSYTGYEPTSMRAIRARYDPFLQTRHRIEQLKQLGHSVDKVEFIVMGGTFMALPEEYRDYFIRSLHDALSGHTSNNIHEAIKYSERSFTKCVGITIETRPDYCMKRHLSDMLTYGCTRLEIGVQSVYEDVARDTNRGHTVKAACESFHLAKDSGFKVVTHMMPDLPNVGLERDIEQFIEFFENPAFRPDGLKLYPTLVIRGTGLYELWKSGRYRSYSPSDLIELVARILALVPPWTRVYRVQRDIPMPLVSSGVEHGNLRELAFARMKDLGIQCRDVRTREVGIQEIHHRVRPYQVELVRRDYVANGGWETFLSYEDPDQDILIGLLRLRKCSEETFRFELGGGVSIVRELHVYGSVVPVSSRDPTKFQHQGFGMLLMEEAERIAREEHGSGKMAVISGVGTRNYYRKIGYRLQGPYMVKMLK

[2] = biological target: T1, Saccharomyces cerevisiae Elp1; test: cryo-EM structure; ScElp123 with yeast tRNA Ala UGC (3-5 molar excess, 15 min on ice), 3.96 Å
[3] = biological target: T2, Saccharomyces cerevisiae Elp2; test: as above

Binder | stoichiometry N [1] | binding result [2] | binding result [3]
B1 | 1 | – | –
B2 | – | binds | binds
